Reference: PMC7909837, “Function and Regulation of Chloroplast Peroxiredoxin IIE” (Antioxidants, 2021)

Target: T1, 14-3-3 υ protein, recombinant (A. thaliana, UniProt P42645 1-268)
T1 construct: 14-3-3 υ, A. thaliana, AT5G16050; construct and tags not described
T1 sequence (looked up): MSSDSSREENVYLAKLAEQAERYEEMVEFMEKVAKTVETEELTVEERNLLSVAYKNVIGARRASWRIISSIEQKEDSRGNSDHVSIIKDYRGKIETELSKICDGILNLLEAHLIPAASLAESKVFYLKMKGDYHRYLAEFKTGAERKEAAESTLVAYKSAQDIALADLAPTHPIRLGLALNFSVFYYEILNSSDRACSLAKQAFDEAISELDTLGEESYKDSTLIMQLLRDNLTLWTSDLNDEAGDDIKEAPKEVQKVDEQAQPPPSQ
Assay: far-Western, overlay or dot blot; dilution series of recombinant 14-3-3 υ spotted on nitrocellulose; incubated with PRX-IIE or its phospho-mimicry variants in TBS with either 1 mM DTT or 100 µM H2O2 overnight at 4 °C; detected with anti-PRX-IIE antibody; spots quantified with ImageJ
Details: both partners purified

B1: Peroxiredoxin IIE (PRX-IIE), wild type, His6-tagged recombinant (enzyme, A. thaliana, UniProt Q949U7 71-234, looked up)
chain: ASISVGDKLPDSTLSYLDPSTGDVKTVTVSSLTAGKKTILFAVPGAFTPTCSQKHVPGFVSKAGELRSKGIDVIACISVNDAFVMEAWRKDLGINDEVMLLSDGNGEFTGKLGVELDLRDKPVGLGVRSRRYAILADDGVVKVLNLEEGGAFTNSSAEDMLKAL
notes: Peroxiredoxin IIE, A. thaliana, AT3G52960, cloned into pET28a (NdeI/BamHI); also called PRX-IIE WT; WT PRX-IIE; source: E. coli BL21 (DE3)pLysS, purified (Ni-NTA, dialysis)
fold improvement of binding under oxidizing conditions (100 µM H2O2) against the other conditions: 2.5 fold
